Measured values taken from patent US20240173352A1.

Tests used:
[1] = biological target: HLA-A*02 (on target cells) (human); assay: cell-based or functional assay
[2] = biological target: HLA-A*02 blocker antigen on beads (human); assay: cell-based or functional assay

Emax shift of the CD19-CAR activator in Jurkat cells [1]: > 10 fold | inhibition of IFNγ induction in primary T cells (MSLN CAR), HeLa target cells expressing HLA-A*02 [1]: > 5 fold | inhibition of IFNγ induction in primary T cells (MSLN CAR), SiHa target cells expressing HLA-A*02 [1]: > 10 fold | shift of the CD19 CAR EMAX, NALM6 target cells [1]: > 5 fold | shift of the EGFR CAR (CT479) EMAX, Jurkat NFAT-luciferase, HLA-A*02 transduced HeLa target cells [1]: > 5 fold | shift of the EGFR CAR EMAX, HeLa target cells [1]: > 5 fold | shift of the EGFR CAR EMAX, Jurkat NFAT-luciferase, HCT116 target cells [1]: 1.8 fold | shift of the EGFR CAR EMAX, SiHa target cells [1]: > 4 fold | shift of the MSLN CAR EMAX, K562 target cells [1]: > 5 fold | suppression of pan HLA scFv CAR activators, HLA-A*02-positive T2 cells, E:T 1:2 [1]: < 25 fold | shift of the EGFR CAR EMAX, cell-free bead assay [2]: > 9 fold | shift of the MSLN CAR EMAX, cell-free bead assay [2]: > 12 fold
Substance: HLA-A*02 PA2.1 ScFv LIR1 inhibitor (C1765) (from UniProt Q8NHL6 399-650) (receptor)
